Results published in publication PMC3436176 (The Journal of Biological Chemistry, 2012).

Target: T1, GPVI-Fc2 (GPVI dimer) (Homo sapiens, UniProt Q9HCN6)
T1 sequence (Q9HCN6 21-214 limits assumed): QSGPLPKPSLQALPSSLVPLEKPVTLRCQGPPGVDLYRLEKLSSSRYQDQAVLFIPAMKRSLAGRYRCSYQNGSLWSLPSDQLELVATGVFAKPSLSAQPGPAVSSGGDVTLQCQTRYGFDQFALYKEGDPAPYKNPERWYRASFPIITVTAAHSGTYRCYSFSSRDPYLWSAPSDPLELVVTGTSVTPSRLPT
Assay: ELISA: GPVI dimer binding to immobilized collagenous substrates

B1: Collagen type III: Pepsin-treated bovine type III collagen from Koken (protein)
chain: EYEAYDVKSGVAGGGIAGYPGPAGPPGPPGPPGTSGHPGAPGAPGYQGPPGEPGQAGPAGPPGPPGAIGPSGKDGESGRPGRPGPRGFPGPPGMKGPAGMPGFPGMKGHRGFDGRNGEKGEPGAPGLKGENGVPGEDGAPGPMGPRGAPGERGRPGLPGAAGARGNDGARGSDGQPGPPGPPGTAGFPGSPGAKGEVGPAGSPGSSGAPGQRGEPGPQGHAGAPGPPGPPGSDGSPGGKGEMGPAGIPGAPGLIGARGPPGPPGTNGVPGQRGAAGEPGKNGAKGDPGPRGERGEAGSPGIAGPKGEDGKDGSPGEPGANGLPGAAGERGVPGFRGPAGANGLPGEKGPPGDRGGPGPAGPRGVAGEPGRNGLPGGPGLRGIPGSPGGPGSNGKPGPPGSQGETGRPGPPGSPGPRGQPGVMGFPGPKGNDGAPGKNGERGGPGGPGPQGPAGKNGETGPQGPPGPTGPSGDKGDTGPPGPQGLQGLPGTSGPPGENGKPGEPGPKGEAGAPGIPGGKGDSGAPGERGPPGAGGPPGPRGGAGPPGPEGGKGAAGPPGPPGSAGTPGLQGMPGERGGPGGPGPKGDKGEPGSSGVDGAPGKDGPRGPTGPIGPPGPAGQPGDKGESGAPGVPGIAGPRGGPGERGEQGPPGPAGFPGAPGQNGEPGAKGERGAPGEKGEGGPPGAAGPAGGSGPAGPPGPQGVKGERGSPGGPGAAGFPGGRGPPGPPGSNGNPGPPGSSGAPGKDGPPGPPGSNGAPGSPGISGPKGDSGPPGERGAPGPQGPPGAPGPLGIAGLTGARGLAGPPGMPGARGSPGPQGIKGENGKPGPSGQNGERGPPGPQGLPGLAGTAGEPGRDGNPGSDGLPGRDGAPGAKGDRGENGSPGAPGAPGHPGPPGPVGPAGKSGDRGETGPAGPSGAPGPAGSRGPPGPQGPRGDKGETGERGAMGIKGHRGFPGNPGAPGSPGPAGHQGAVGSPGPAGPRGPVGPSGPPGKDGASGHPGPIGPPGPRGNRGERGSEGSPGHPGQPGPPGPPGAPGPCCGAGGVAAI
In the case of B1, the “Kd (monomer)/Kd (dimer)” value (binding to collagenous substrates) is reported as 236.7 and the “Hill coefficient for dimer binding” value (mean ± S.E., n = 4-12 as printed) is reported as 1.16 ± 0.11.
